Laboratory results taken from patent publication US20260049134A1 (UNIVERSITY OF FLORIDA RESEARCH FOUNDATION, published 2026).

T1: HHLA2 (B7-H7)
T1 construct: coated protein in the ELISA; also called HHLA2-Fc (R&D Systems)
T1 chain: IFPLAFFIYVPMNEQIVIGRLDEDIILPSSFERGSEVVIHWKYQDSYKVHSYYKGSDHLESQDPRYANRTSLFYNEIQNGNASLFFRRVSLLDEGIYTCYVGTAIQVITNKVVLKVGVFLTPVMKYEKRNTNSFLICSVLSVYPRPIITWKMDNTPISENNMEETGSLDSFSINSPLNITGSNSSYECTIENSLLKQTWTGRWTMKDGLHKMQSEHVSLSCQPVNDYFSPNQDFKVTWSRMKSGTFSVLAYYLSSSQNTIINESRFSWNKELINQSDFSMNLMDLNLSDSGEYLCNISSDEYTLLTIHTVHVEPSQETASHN

T2: PTPRG-Fc (ECD of human PTPRG, aa 20-736, fused to human Fc gamma 1) (human, UniProt P23470 20-736)
T2 construct: Made in-house in Expi293 cells; Used in ELISA and SPR; also called recombinant PTPRG-Fc; PTRPG; not shown: human IgG1 Fc (Fc gamma 1) after the hinge
T2 sequence: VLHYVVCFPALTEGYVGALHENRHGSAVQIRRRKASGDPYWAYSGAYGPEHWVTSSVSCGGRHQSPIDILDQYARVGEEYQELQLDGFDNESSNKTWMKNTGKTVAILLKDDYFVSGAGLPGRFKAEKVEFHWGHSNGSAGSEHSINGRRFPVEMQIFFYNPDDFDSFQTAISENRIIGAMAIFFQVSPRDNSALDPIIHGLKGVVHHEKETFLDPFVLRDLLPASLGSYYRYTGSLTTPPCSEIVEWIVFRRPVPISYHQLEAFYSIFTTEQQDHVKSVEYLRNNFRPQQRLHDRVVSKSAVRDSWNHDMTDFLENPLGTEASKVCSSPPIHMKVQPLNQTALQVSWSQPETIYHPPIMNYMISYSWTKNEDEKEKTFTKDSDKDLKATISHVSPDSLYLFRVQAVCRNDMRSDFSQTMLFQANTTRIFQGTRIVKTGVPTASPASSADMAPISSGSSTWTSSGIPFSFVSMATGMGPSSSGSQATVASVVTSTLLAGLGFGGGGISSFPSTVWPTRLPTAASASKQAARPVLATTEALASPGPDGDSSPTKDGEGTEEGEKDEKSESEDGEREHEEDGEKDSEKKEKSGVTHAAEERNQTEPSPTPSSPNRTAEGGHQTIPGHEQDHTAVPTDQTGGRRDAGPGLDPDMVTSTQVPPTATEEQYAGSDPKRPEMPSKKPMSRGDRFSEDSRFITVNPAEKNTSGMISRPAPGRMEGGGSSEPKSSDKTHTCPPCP

T3: SELL (L-Selectin)
T3 construct: coated protein in the ELISA; also called SELL-Fc-His (R&D Systems)
T3 chain: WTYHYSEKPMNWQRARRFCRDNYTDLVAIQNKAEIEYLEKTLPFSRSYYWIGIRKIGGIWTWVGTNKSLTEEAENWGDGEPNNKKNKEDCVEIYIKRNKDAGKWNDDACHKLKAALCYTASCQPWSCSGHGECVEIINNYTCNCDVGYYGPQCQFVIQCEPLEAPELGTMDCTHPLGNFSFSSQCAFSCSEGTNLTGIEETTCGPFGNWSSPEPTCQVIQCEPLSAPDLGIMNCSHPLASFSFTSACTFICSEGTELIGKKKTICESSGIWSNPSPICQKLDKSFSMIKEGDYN

T4: CADM1-His (Acro Biosystems) (human, UniProt Q9BY67 45-374)
T4 construct: Bought; also called CADM1/IGSF4A; not shown: His tag of the bought protein
T4 sequence: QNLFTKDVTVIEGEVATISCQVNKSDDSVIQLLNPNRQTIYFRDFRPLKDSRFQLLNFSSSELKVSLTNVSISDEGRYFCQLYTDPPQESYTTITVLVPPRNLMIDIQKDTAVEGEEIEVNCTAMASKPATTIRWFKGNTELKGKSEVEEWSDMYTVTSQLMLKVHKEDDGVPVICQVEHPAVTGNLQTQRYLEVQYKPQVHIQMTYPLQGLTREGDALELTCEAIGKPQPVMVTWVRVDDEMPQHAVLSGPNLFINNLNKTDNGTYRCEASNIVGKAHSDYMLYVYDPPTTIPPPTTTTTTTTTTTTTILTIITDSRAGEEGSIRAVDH


Assays:
APP = target: T5, APP; experiment: ELISA on coated APP-His, 150 ng IgG1; None 0.092
T5 construct: His-tagged; coated protein in the ELISA; also called APP-His (Acro Biosystems)
Experimental: (§1) Recombinant purified ECDs (50-150 ng) of each putative target protein were coated, incubated with 150 ng of the indicated primary antibody, and binding was detected using a peroxidase-conjugated anti-human Fab secondary antibody. Heatmap represents averages of technical triplicates. (8B) Target validation via siRNA knockdown. H929 cells were transfected with siRNA pools targeting the putative antibody targets ICAM1, CADM1, and PTPRG. Cells were then subjected to cognate IgG binding analysis via flow cytometry. (NT, non-targeting siRNA).
(§2) ELISA ELISA was conducted as described previously. Briefly, 50-150 ng of antigen was coated overnight in half-area 96-well plates at 4° C., blocked with 3% BSA at 37° C. for 1 h, and 150 ng of chimeric rabbit/human IgG1 was added, incubating for 2 h at 37° C. […] After incubating at 37° C. for 15 min-1 h (depending on intensity of controls), data were acquired using a SpectraMax M5 plate reader (Molecular Devices).

HHLA2 (B7-H7) = target: T1, HHLA2 (B7-H7); experiment: ELISA on coated HHLA2-Fc, 150 ng IgG1; None 0.087
Experimental: as §1, §2

[1] = target: T2, PTPRG-Fc (ECD of human PTPRG, aa …); experiment: ELISA on coated PTPRG-Fc, 150 ng IgG1; None 0.117
Experimental: as §1, §2

SELL (L-Selectin) = target: T3, SELL (L-Selectin); experiment: ELISA on coated SELL-Fc-His, 150 ng IgG1; None 0.096
Experimental: as §1, §2

[2] = target: T4, CADM1-His (Acro Biosystems); experiment: ELISA on coated CADM1-His, 150 ng IgG1; None 0.059
Experimental: as §1, §2

Binder	ELISA Absorbance (405 nm-570 nm) (APP)	ELISA Absorbance (405 nm-570 nm) (HHLA2 (B7-H7))	ELISA Absorbance (405 nm-570 nm) [1]	ELISA Absorbance (405 nm-570 nm) (SELL (L-Selectin))	ELISA Absorbance (405 nm-570 nm) [2]
HW-81 chimeric rabbit-human IgG1 LA/LA/PG (antibody, V domains shown, Fc-silenced (L234A/L235A/P329G) IgG1, lambda; Alexa Fluor 647-labeled in single-step flow cytometry; Cluster C-45) VH: QKQLVESGGGLVTPGGTLTLTCTVSGFSLSSNGVSWVRQAPGKGLEYIGLIRSIGSTYYATWAKGRFTISKTSTTVDLKITSPTTEDTATYFCARGGYRNGFKLWGPGTLVTVSS VL: QPVLTQSPSVSAALGASAKLTCTLSSAHKTYYIEWYQQQHPGKAPRYLMQLQSDGSYTKGTGVPDRFSGSSSGADRYLIISSVQAEDEADYICGVIDSAVYVFGGGTQLTVTG	0.081	0.072	0.122	0.083	0.05
HW-56 chimeric rabbit-human IgG1 LA/LA/PG (antibody, V domains shown, Fc-silenced (L234A/L235A/P329G) IgG1, kappa; Alexa Fluor 647-labeled in single-step flow cytometry; Cluster C-45) VH: QSVKESEGGLFKPTDTLTLTCTASGFTVSTNAVTWVRQAPGNGLEYIGTIGRSGSAYFASWAKRRSTLTRDINLNTVTLKMTSLTAADTATYFCVRGSPGYRTAISIWGPGTLVTISS VL: AVMTQTPSSTSAAVEGTVTINCQASQSISNRLSWFQQKPGQPPKLLIYQASTLASGVPSRFKGSGSGTEFTLTISGVQREDAATYYCLGSYSSSDASFGGGTKLEIKR	0.112	0.076	0.102	0.117	0.059
HW-97 chimeric rabbit-human IgG1 LA/LA/PG (antibody, V domains shown, Fc-silenced (L234A/L235A/P329G) IgG1, lambda; Alexa Fluor 647-labeled in single-step flow cytometry; Prototype of cluster C-97) VH: QKQLVESGGRLVTPGTPLTLTCTVTGIDLSSHGMSWVRQAPGKGLEWIGVIYPSGSTWYASWARGRFTISKTSTTVDLKMTSLTTEDTATHFCARGDVGGADNNIWGPGTLVTVSS VL: SFVLTQPASVQVDLGQTVSLTCTAETLSRSYASWYQQKPGQAPVLLIYRDTSRPSGVPDRFSGSSSGNTATLTISGAQAGDEADYYCATSDGSGSSYQYVFGGGTQLTVTG	0.067	0.079	0.096	0.075	0.679
HW-113 chimeric rabbit-human IgG1 LA/LA/PG (antibody, V domains shown, Fc-silenced (L234A/L235A/P329G) IgG1, lambda; Alexa Fluor 647-labeled in single-step flow cytometry) VH: QKQLVESGGGLVQPGGSLTLTCTVSGFSLNKYYMGWFRQAPGKGLEWIGVISRSGDTYYSSWAKGRFTISKASTTVDLRITSPTTEDTATYFCARDASSPGFHGDRLDLWGQGTLVTVSS VL: SFVLTQPASVQVNLGQTVSLTCTADTLSRSYASWYQQKPGQAPVLLIYRDTSRPSGVPDRFSGSSSGNTATLTISGAQAGDEADYYCATSDGIGSNYLWVFGGGTQLTVTG	0.074	0.071	0.071	0.088	0.058
HW-101 chimeric rabbit-human IgG1 LA/LA/PG (antibody, V domains shown, Fc-silenced (L234A/L235A/P329G) IgG1, lambda; Alexa Fluor 647-labeled in single-step flow cytometry; Cluster C-97) VH: QEQLVESGGRLVTPGTPLTLTCKASGFSLGKYDMSWVRQAPGKGLEWIGTIYAGSGSTWYASWAKGRFTISKTSTTVDLKMTSLTTEDTATYFCARDFLGVNSIWGPGTLVTISS VL: SFVLTQPASVQVNLGQTVSLTCTADTLSRSYASWYQQKPDQAPVLLIHRDTSRPSGVPDRFSGSNSGNTATLTISGAQAGDEADYYCATSDGSGSNFHFVFGGGTQLTVTG	0.061	0.069	0.097	0.072	0.525
